For 7 molecules, EC50 results are on record in patent US20220220215A1 (CRESCENDO BIOLOGICS, published 2022).

The target of assay [1] is T1, human CD137 expressed on CHO cells (human, UniProt Q07011 18-255).
T1 construct: also called CHO huCD137; CHO human CD137 cells
As to the kind of experiment: flow cytometry on CHO huCD137 cells. For orientation: A flow cytometer gives signals particle by particle.

Assay [2] has as its target T1, human CD137 expressed on CHO cells. Nature of the assay: FMAT/Mirrorball on CHO huCD137 cells. Summed up: (§1)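 His-tagged VH molecules bound to CHO cells expressing human PD-1 or human CD137, with CHO parent cells as control, in PBS pH 7.4, 0.1% BSA, 0.05% sodium azide. Read by FMAT on Mirrorball (ex 488/640 nm); binding taken as FL2 median fluorescence intensity of FL5-gated events.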

For assay [3], the target named is T2, human PD-1 expressed on CHO cells (human, UniProt Q15116 21-288).
T2 construct: also called CHO huPD1; CHO human PD1 cells
Nature of the assay: flow cytometry on CHO huPD1 cells.

The target of assay [4] is T2, human PD-1 expressed on CHO cells. As to the kind of experiment: FMAT/Mirrorball on CHO huPD1 cells. The procedure, abridged:
as §1

B1: TPP-973: CD137A -6GS-PDA2-6GS-HSA2-His (bispecific antibody)
chain: EVQLVESGGGLVQPGGSLRLSCAASGFTLSNYWMNWVRQAPGKGLEWVANINQDGSERYYVDSVKGRFTISRDNAKNSLYLQMNSLRAEDTAVYYCARGGEGYGVDHYGLDVSGQGTTVTVSSGGGGSGGGGSGGGGSGGGGSGGGGSGGGGSEVQLVESGGGVVRPGGSLRLSCAASGFTFDDYAMSWVRQAPGKGLEWVSGITWNAGSTGYADSVKGRFTISRDNAKNSLYLQMNSLRAEDTALYYCVRDKYSYAWSYDDFDIWGQGTMVTVSSGGGGSGGGGSGGGGSGGGGSGGGGSGGGGSEVQLVESGGGLVKPGGSLRLSCAASGFTFSNYNMNWVRQAPGKGLEWVSSISSAGTHIYYADSVKGRFTISRDNAKNSLYLQMNSLRAEDTAVYYCARDPHSTGWYKDFDYWGQGTLVTVSSAAAHHHHHH
notes: Single-chain VH fusion (CD137 VH, PD-1 VH, HSA VH), His tag
In general, EC50 refers to the concentration that produces a half-maximal response. For the molecule B1, the EC50 came to 0.595 nM in assay [1], 0.0781 nM in assay [2], 108 nM in assay [3] and 0.481 nM in assay [4].

B2: TPP-1027: CD137A -6GS-HSA2-6GS-PD138G7(G109D)-His (bispecific antibody)
chain: EVQLVESGGGLVQPGGSLRLSCAASGFTLSNYWMNWVRQAPGKGLEWVANINQDGSERYYVDSVKGRFTISRDNAKNSLYLQMNSLRAEDTAVYYCARGGEGYGVDHYGLDVSGQGTTVTVSSGGGGSGGGGSGGGGSGGGGSGGGGSGGGGSEVQLVESGGGLVKPGGSLRLSCAASGFTFSNYNMNWVRQAPGKGLEWVSSISSAGTHIYYADSVKGRFTISRDNAKNSLYLQMNSLRAEDTAVYYCARDPHSTGWYKDFDYWGQGTLVTVSSGGGGSGGGGSGGGGSGGGGSGGGGSGGGGSEVQLVESGGGVVRPGGSLRLSCAASGFTFDDYAMSWVRQAPGKGLEWVSGITWNGGSTGYADSVKDRFTISRDNAKNSLYLQMNSLRAEDTALYYCVRDKYSYAWSYDDFDIWGQGTMVTVSSAAAHHHHHH
notes: Single-chain VH fusion (CD137 VH, HSA VH, PD-1 VH), His tag
On to B2, for which the EC50 turned out to be 1.47 nM in assay [1], 0.0672 nM in assay [2], 5.01 nM in assay [3] and 0.173 nM in assay [4].

B3: TPP-1010: PD138G7(G109D)-6GS-HSA2-6GS- CD137D -His (bispecific antibody)
chain: EVQLVESGGGVVRPGGSLRLSCAASGFTFDDYAMSWVRQAPGKGLEWVSGITWNGGSTGYADSVKDRFTISRDNAKNSLYLQMNSLRAEDTALYYCVRDKYSYAWSYDDFDIWGQGTMVTVSSGGGGSGGGGSGGGGSGGGGSGGGGSGGGGSEVQLVESGGGLVKPGGSLRLSCAASGFTFSNYNMNWVRQAPGKGLEWVSSISSAGTHIYYADSVKGRFTISRDNAKNSLYLQMNSLRAEDTAVYYCARDPHSTGWYKDFDYWGQGTLVTVSSGGGGSGGGGSGGGGSGGGGSGGGGSGGGGSEVQLVESGGGVVQPGGSLRLSCAASGFTFSNYGMHWVRQAPGKGLEWVAVISNDGNTKTYADSVKGRFTISRDNSKNTLYLQMNSLRAEDTAVYYCAQDETTTVTASYYFDYWGQGTLVTVSSAAAHHHHHH
notes: Single-chain VH fusion (PD-1 VH, HSA VH, CD137 VH), His tag
Take B3: the EC50 in assay [1] came out at 9.39 nM; in assay [2], 0.101 nM; in assay [3], 0.531 nM; in assay [4], 0.162 nM.

B4: TPP-1246 CD137A-6GS-HSA2-6GS-PD138G7(G109D) (bispecific antibody)
chain: EVQLVESGGGLVQPGGSLRLSCAASGFTLSNYWMNWVRQAPGKGLEWVANINQDGSERYYVDSVKGRFTISRDNAKNSLYLQMNSLRAEDTAVYYCARGGEGYGVDHYGLDVSGQGTTVTVSSGGGGSGGGGSGGGGSGGGGSGGGGSGGGGSEVQLVESGGGLVKPGGSLRLSCAASGFTFSNYNMNWVRQAPGKGLEWVSSISSAGTHIYYADSVKGRFTISRDNAKNSLYLQMNSLRAEDTAVYYCARDPHSTGWYKDFDYWGQGTLVTVSSGGGGSGGGGSGGGGSGGGGSGGGGSGGGGSEVQLVESGGGVVRPGGSLRLSCAASGFTFDDYAMSWVRQAPGKGLEWVSGITWNGGSTGYADSVKDRFTISRDNAKNSLYLQMNSLRAEDTALYYCVRDKYSYAWSYDDFDIWGQGTMVTVSS
On to B4, for which the EC50 in assay [1] was found to be 2.48 nM; in assay [3], 20.5 nM.

B5: TPP-1290 PD138G7(G109D)-6GS-CD137A-6GS-HSA2 (bispecific antibody)
chain: EVQLVESGGGVVRPGGSLRLSCAASGFTFDDYAMSWVRQAPGKGLEWVSGITWNGGSTGYADSVKDRFTISRDNAKNSLYLQMNSLRAEDTALYYCVRDKYSYAWSYDDFDIWGQGTMVTVSSGGGGSGGGGSGGGGSGGGGSGGGGSGGGGSEVQLVESGGGLVQPGGSLRLSCAASGFTLSNYWMNWVRQAPGKGLEWVANINQDGSERYYVDSVKGRFTISRDNAKNSLYLQMNSLRAEDTAVYYCARGGEGYGVDHYGLDVSGQGTTVTVSSGGGGSGGGGSGGGGSGGGGSGGGGSGGGGSEVQLVESGGGLVKPGGSLRLSCAASGFTFSNYNMNWVRQAPGKGLEWVSSISSAGTHIYYADSVKGRFTISRDNAKNSLYLQMNSLRAEDTAVYYCARDPHSTGWYKDFDYWGQGTLVTVSS
Consider B5, for which the EC50 came to 4.45 nM in assay [1] and 22.7 nM in assay [3].

B6: TPP-1247 CD137A-6GS-HSA3-6GS-PD138G7(G109D) (bispecific antibody)
chain: EVQLVESGGGLVQPGGSLRLSCAASGFTLSNYWMNWVRQAPGKGLEWVANINQDGSERYYVDSVKGRFTISRDNAKNSLYLQMNSLRAEDTAVYYCARGGEGYGVDHYGLDVSGQGTTVTVSSGGGGSGGGGSGGGGSGGGGSGGGGSGGGGSEVQLLESGGGLVKPGGSLRLSCAASGFTVSSYTMNWVRQAPGKGLEWVSSISSSGRYIYYADSVKGRFTISRDNAKNSLYLQMNSLRAEDTAVYYCARDPRMVGNPHEFDIWGQGTMVTVSSGGGGSGGGGSGGGGSGGGGSGGGGSGGGGSEVQLVESGGGVVRPGGSLRLSCAASGFTFDDYAMSWVRQAPGKGLEWVSGITWNGGSTGYADSVKDRFTISRDNAKNSLYLQMNSLRAEDTALYYCVRDKYSYAWSYDDFDIWGQGTMVTVSS
Turning to B6, the EC50 in assay [1] was determined as 3.39 nM; in assay [3] it was 25.4 nM.

B7: TPP-1028: CD137A -6GS-HSA3-6GS-PD138G7(G109D)-His (bispecific antibody)
chain: EVQLVESGGGLVQPGGSLRLSCAASGFTLSNYWMNWVRQAPGKGLEWVANINQDGSERYYVDSVKGRFTISRDNAKNSLYLQMNSLRAEDTAVYYCARGGEGYGVDHYGLDVSGQGTTVTVSSGGGGSGGGGSGGGGSGGGGSGGGGSGGGGSEVQLLESGGGLVKPGGSLRLSCAASGFTVSSYTMNWVRQAPGKGLEWVSSISSSGRYIYYADSVKGRFTISRDNAKNSLYLQMNSLRAEDTAVYYCARDPRMVGNPHEFDIWGQGTMVTVSSGGGGSGGGGSGGGGSGGGGSGGGGSGGGGSEVQLVESGGGVVRPGGSLRLSCAASGFTFDDYAMSWVRQAPGKGLEWVSGITWNGGSTGYADSVKDRFTISRDNAKNSLYLQMNSLRAEDTALYYCVRDKYSYAWSYDDFDIWGQGTMVTVSSAAAHHHHHH
notes: as for B2
On to B7, for which the EC50 in assay [1] was determined as 1.99 nM; in assay [2], 0.151 nM; in assay [3], 22.7 nM; in assay [4] it was 0.583 nM.
